Assay results from article PMC3953565 (Methods in molecular biology (Clifton, N.J.), 2009).

Biological target: the molecule itself
Assay: AUC

B1: recombinant human mitochondrial single-stranded DNA binding protein, mature form (natural protein, UniProt Q04837 17-148, looked up)
chain: ESETTTSLVLERSLNRVHLLGRVGQDPVLRQVEGKNPVTIFSLATNEMWRSGDSEVYQLGDVSQKTTWHRISVFRPGLRDVAYQYVKKGSRIYLEGKIDYGEYMDKNNVRRQATTIIADNIIFLSDQTKEKE
stoichiometry N: 4
